Measurements as given in patent US20040014658A1 (PROCHON BIOTECH, published 2004).

Molecular target: L37M-W144G-FGF9 (human, UniProt P31371 38-208)
Assay: ex vivo mouse femur growth with FGFR3 neutralizing Fab MSPRO-59 (inferred)
Method: Femoral bone cultures were performed by excising the hind limbs of wild type mice. The limbs were carefully cleaned from the surrounding tissue (skin and muscles) and the femora exposed. The femora were removed and further cleared from tissue remains and ligaments. The femora were measured for their initial length, using a binocular with an eyepiece micrometer ruler. […] In addition, the medium contains BSA (0.2%), β-glycerophosphate (1 mM) and freshly prepared ascorbic acid (50 μg/ml). The bones were cultured for 15 days. Measurements of bone length and medium replacement were performed every three days.

B1: FGFR3 of wild type mouse femora (receptor)
chain: EPPGPEQRVVRRAAEVPGPEPSQQEQVAFGSGDTVELSCHPPGGAPTGPTVWAKDGTGLVASHRILVGPQRLQVLNASHEDAGVYSCQHRLTRRVLCHFSVRVTDAPSSGDDEDGEDVAEDTGAPYWTRPERMDKKLLAVPAANTVRFRCPAAGNPTPSISWLKNGKEFRGEHRIGGIKLRHQQWSLVMESVVPSDRGNYTCVVENKFGSIRQTYTLDVLERSPHRPILQAGLPANQTAILGSDVEFHCKVYSDAQPHIQWLKHVEVNGSKVGPDGTPYVTVLKTAGANTTDKELEVLSLHNVTFEDAGEYTCLAGNSIGFSHHSAWLVVLPAEEELMETDEAGSVYAGVLSYGVVFFLFILVVAAVILCRLRSPPKKGLGSPTVHKVSRFPLKRQVSLESNSSMNSNTPLVRIARLSSGEGPVLANVSELELPADPKWELSRTRLTLGKPLGEGCFGQVVMAEAIGIDKDRTAKPVTVAVKMLKDDATDKDLSDLVSEMEMMKMIGKHKNIINLLGACTQGGPLYVLVEYAAKGNLREFLRARRPPGMDYSFDACRLPEEQLTCKDLVSCAYQVARGMEYLASQKCIHRDLAARNVLVTEDNVMKIADFGLARDVHNLDYYKKTTNGRLPVKWMAPEALFDRVYTHQSDVWSFGVLLWEIFTPGGPSPYPGIPVEELFKLLKEGHRMDKPASCTHDLYMIMRECWHAVPSQRPTFKQLVEDLDRILTVTSTDEYLDLSVPFEQYSPGGQDTPSSSSSGDDSVFTHDLLPPGPPSNGGPRT
notes: whole, on cells; Endogenous receptor in bone tissue culture
- binding result: binds
